This note sets out measurements from publication PMC6955894, “Development of Aptamer-Based TID Assays Using Thermophoresis and Microarrays”.

The Kd is the concentration at which binding is half-saturated.

The target in series [1] is T1, VEGF-A165 (human, UniProt P15692-4 27-191). Description: MST; TBSET: 10 mM Tris, 100 mM NaCl, 50 mM KCl, 0.05 mM EDTA, 0.05% Tween 20, pH 7; MST with 25 nM aptamer, 20 min at 20 C, read at room temperature; microarray in TBSETB (TBSET + 1% BSA), 1 h for the co-incubation. The settings on record: protein: recombinant, chain copies: 2.
T1 sequence (P15692 other isoform, or with tags, fused parts or gaps): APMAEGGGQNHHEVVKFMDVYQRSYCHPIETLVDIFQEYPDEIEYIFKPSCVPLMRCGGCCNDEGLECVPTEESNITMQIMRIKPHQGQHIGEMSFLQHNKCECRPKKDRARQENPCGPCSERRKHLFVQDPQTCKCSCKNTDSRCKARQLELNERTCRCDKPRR
Series [2] concerns the target T2, alpha-chymotrypsin (UniProt P00766;P00766;P00766 1-13;16-146;149-245). Description: capillary-scan TID (competition); up to 7.5 uM; complement did not dissociate; TBSET: 10 mM Tris, 100 mM NaCl, 50 mM KCl, 0.05 mM EDTA, 0.05% Tween 20, pH 7; MST with 25 nM aptamer, 20 min at 20 C, read at room temperature; microarray in T.
For series [3], the target named is T2, alpha-chymotrypsin. Description: microarray TID (competition); 1 uM protein, 1000 pM cV7t1-Cy5: no decrease; TBSET: 10 mM Tris, 100 mM NaCl, 50 mM KCl, 0.05 mM EDTA, 0.05% Tween 20, pH 7; MST with 25 nM aptamer, 20 min at 20 C, read at room temperature; microarray in T.
The target in series [4] is T1, VEGF-A165. Description: MST; no binding curve over 5 fluorescence units; TBSET: 10 mM Tris, 100 mM NaCl, 50 mM KCl, 0.05 mM EDTA, 0.05% Tween 20, pH 7; MST with 25 nM aptamer, 20 min at 20 C, read at room temperature; microarray in TBSETB (TBSET + 1% BSA), 1 h for the co-incubation. The settings on record: protein: recombinant; chain copies: 2; label: 3' FITC.

B1: Del5-1-Cy5 (ssDNA)
DNA: ATACCAGTCTATTCAATTGGGCCCGTCCGTATGGTGGGTGTGCTGGCCAG
Turning to B1, the Kd with VEGF-A165 [1] (label: 3' Cy5) is 47 ± 18 nM.

B2: V7t1-Cy5 (structured_DNA)
DNA: TGTGGGGGTGGACGGGCCGGGTAGATAGTATGTGCAATC
Regarding B2, the Kd with VEGF-A165 [1] (label: 3' Cy5, G-quadruplex with three G-quartets) stood at 201 ± 28 nM.

B3: V7t1-FITC/cV7t1-Dabcyl (mixed)
DNA 1: TGTGGGGGTGGACGGGCCGGGTAGATAGTATGTGCATTC
DNA 2: CCGTCCACCCCC
modifications: 3' Dabcyl quencher on strand 2
Regarding B3, the binding result with alpha-chymotrypsin [2] is listed as “no binding”.

B4: V7t1-FITC (structured_DNA)
DNA: TGTGGGGGTGGACGGGCCGGGTAGATAGTATGTGCATTC
B4: in the series with VEGF-A165 [1] (label: 5' FITC, G-quadruplex with three G-quartets), the dissociation constant Kd was determined as 155 ± 55 nM.

B5: V7t1-NH2/cV7t1-Cy5 (mixed)
DNA 1: TGTGGGGGTGGACGGGCCGGGTAGATAGTATGTGCATTC
DNA 2: CCGTCCACCCCC
modifications: 3' NH2 on strand 1, immobilized on aldehyde slide
Consider B5, for which the binding result with alpha-chymotrypsin [3] is listed as “no binding”.

B6: Syl3C-FITC (ssDNA)
DNA: CACTACAGAGGTTGCGTCTGTCCCACGTTGTCATGGGGGGTTGGCCTG
For the molecule B6, in the series with VEGF-A165 [4], the binding result was “no binding”.
